Target: T1, RANK (Receptor Activator for Nuclear Factor κB) (UniProt Q9Y6Q6 30-616, limits assumed)
T1 construct: whole, on cells; Endogenous receptor on THP1 monocytes; also called RANKL receptor
T1 sequence (looked up): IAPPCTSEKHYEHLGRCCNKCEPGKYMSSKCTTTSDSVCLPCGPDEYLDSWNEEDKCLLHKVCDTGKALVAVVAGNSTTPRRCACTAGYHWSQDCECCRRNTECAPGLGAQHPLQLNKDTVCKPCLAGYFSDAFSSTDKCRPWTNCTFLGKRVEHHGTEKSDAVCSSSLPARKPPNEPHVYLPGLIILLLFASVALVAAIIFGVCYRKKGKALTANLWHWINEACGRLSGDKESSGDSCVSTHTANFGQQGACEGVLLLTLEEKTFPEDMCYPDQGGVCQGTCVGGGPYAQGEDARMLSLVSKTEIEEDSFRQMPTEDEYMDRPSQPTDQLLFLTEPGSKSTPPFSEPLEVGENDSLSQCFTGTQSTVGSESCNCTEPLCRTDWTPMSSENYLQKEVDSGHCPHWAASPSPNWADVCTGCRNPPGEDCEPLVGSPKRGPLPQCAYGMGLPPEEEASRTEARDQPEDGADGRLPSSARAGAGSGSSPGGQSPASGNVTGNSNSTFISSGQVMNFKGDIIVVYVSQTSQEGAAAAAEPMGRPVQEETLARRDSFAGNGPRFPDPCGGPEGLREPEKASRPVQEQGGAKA
Test: flow cytometry; 5 µg RIG on 1*10^6 THP1 monocytes, detected with FITC labeled anti human RANKL antibody
Procedure: 1*10⁶ THP1 monocytes were grown in MCSF and RANKL medium for 72 hours and mixed with 5 μg purified RIG protein from Implementation 1 for additional 1 hour at 4° C. 5 μl FITC labeled anti human RANKL antibody (CALTAG, CA) was then added into the mixture and flow cytometry was used to examine FITC positive cells. […] In FIG. 4, SSC-H presents the pellet number in cytoplasm, FSC-H presents the cell size, FL2-H presents PE and FL1-H presents FITC.

binding result: binds
B1: fusion protein RIG (Fc fusion)
chain: MRRASRDYTKYLRGSEEMGGGPGAPHEGPLHAPPPPAPHQPPAASRSMFVALLGLGLGQVVCSVALFFYFRAQMDPNRISEDGTHCIYRILRLHENADFQDTTLESQDTKLIPDSCRRIKQAFQGAVQKELQHIVGSQHIRAEKAMVDGSWLDLAKRSKLEAQPFAHLTINATDIPSGSHKVSLSSWYHDRGWAKISNMTFSNGKLIVNQDGFYYLYANICFRHHETSGDLATEYLQLMVYVTKTSIKIPSSHTLMKGGSTKYWSGNSEFHFYSINVGGFFKLRSGEEISIEVSNPSLLDPDQDATYFGAFKVRDIDGSEPKSCDKTHTCPPCPAPELLGGPSVFLFPPKPKDTLMISATPEVTCVVVDVSHEDPEVKFMWYVDGVEVHNAKTKPAEEQYNSTYAVVSVLTVLHQDWLNGKEYKCKVSNKALPAPIEKTISKAKGQPAEPQVYTLPPSRDELTYNQVSLTCLVKGFYPSDIAVEWESNGQPENNYKTTPPVLDSDGSFFLYSKLTVDKSRWQQGNVFSCSVMHEALHNHYTQKSLSLSPGK
notes: also called RANKL-Fcγ fusion protein; RIG protein

From patent US20110243944A1 (SHANGHAI KEXIN BIOTECH, published 2011)
